{"source": "patent US6692962", "target": "wild type (51S) wheat eIF2α (alpha subunit of wheat eukaryotic initiation factor 2) (wheat)", "test": "cell-based or functional assay", "data": [{"substance": "PKR (IPTG-inducible, expressed from recombinant vaccinia virus WR 68K) (from UniProt P19525 2-551) (enzyme)", "values": [{"measurement": "phosphorylated peIF2α 51S, densitometric analyses of western blots (HeLa cells)", "result": 3.8, "unit": "fold"}]}]}
